The source of these data is US6750325 (CELLTECH R AND D, dated 2004).

This assay deals with T1, CD3 antigen of the T-cell receptor-CD3 complex on human T cells (human, UniProt P07766 23-207).
T1 construct: whole, on cells; also called OKT3 antigen
The experiment in a line: antigen binding assay on CD3 positive cells, COS cell supernatant (cell line not restated).

Experimental: The procedure was as follows:
HUT 78 cells (human T cell line, CD3 positive) were maintained in culture. Monolayers of HUT 78 cells were prepared onto 96 well ELISA plates using poly-L-lysine and glutaraldehyde. Samples were added to the monolayers for 1 hour at room temperature. The plates were washed gently using PBS. F(ab')_2 goat anti-human IgG Fc (HRPO conjugated) or F(ab')_2 goat anti-mouse IgG Fc (HRPO conjugated) was added as appropriate for humanised or mouse samples. Substrate was added to reveal the reaction. The negative control for the cell-based assay was chimer B72.3. […] Binding was measured by the following procedure: HPB-ALL cells were harvested from tissue culture. Cells were incubated at 4° C. for 1 hour with various dilutions of test antibody, positive control antibody, or negative control antibody. The cells were washed once and incubated at 4° C. for 1 hour with an FITC-labelled goat anti-human IgG (Fc– specific, mouse absorbed). The cells were washed twice and analysed by cytofluorography. […] Cells incubated with mock-transfected COS cell supernatant, followed by the FITC-labelled goat anti-human IgG, provided the negative control. […] The samples were incubated for 1 hour at 4° C., washed twice and analysed by cytofluorography.

B1: fully CDR-grafted antibody kgL221A with gH341 (kgL221A/kgH341) (antibody, V domains shown)
VH: QVQLVESGGGVVQPGRSLRLSCSSSGYTFTRYTMHWVRQAPGKGLEWVAYINPSRGYTNYNQKFKDRFTISRDNSKNTLFLQMDSLRPEDTGVYFCARYYDDHYCLDYWGQGTTLTVSS
VL: QIVMTQSPSSLSASVGDRVTITCSASSSVSYMNWYQQTPGKAPKRWIYDTSKLASGVPSRFSGSGSGTDYTFTISSLQPEDIATYYCQQWSSNPFTFGQGTKLQIT
notes: Expression was very low; also called kgH221A/gH341; kgH221A/kgH341
With B1, the binding result was “no binding”.
